Test results published in patent US20230295344A1 (published 2023).
Ends that are not written are not given here. * marks the point of attachment. Biotin = O=C1N[C@H]2[C@H](CS[C@H]2CCCCC(=O)*)N1

How the values were obtained:
Assay in all cases: labelled AK1967 on biotinylated peptide on avidin plate, chemiluminescence
[1] = biological target: T1, epitope mapping peptide #2
T1 peptide: Biotin-AFNFDQETVINPETGEQIQ
Description: (§1) These peptides include the sequence of the full immunization peptide (SEQ ID No. 2) or fragments thereof, with stepwise removal of one amino acid from either C- or N-terminus (see table 5 for a complete list of peptides).
(§2) High binding 96 well plates were coated with 2 µg Avidin per well (Greiner Bio-One international AG, Austria) in coupling buffer (500 mM Tris-HCl, pH 7.8, 100 mM NaCl). Afterwards plate were washed and filled with specific solutions of biotinylated peptides (10 ng/ well; buffer – 1xPBS with 0.5% BSA)
(§3) The plates were filled with 200 µl of labeled and diluted detection antibody (tracer) and incubated for 4 h at room temperature. Unbound tracer was removed by washing 4 times with 350 µl washing solution (20 mM PBS, pH 7.4, 0.1 % Triton X-100). Well-bound chemiluminescence was measured by using the Centro LB 960 luminometer (Berthold Technologies GmbH & Co. KG).

[2] = biological target: T2, epitope mapping peptide #1 (N-terminal biotin)
T2 peptide: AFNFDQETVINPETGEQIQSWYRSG
Description: as §1, §2, §3

[3] = biological target: T3, epitope mapping peptide #4
T3 peptide: Biotin-AFNFDQETVINPETGEQ
Description: as §1, §2, §3

[4] = biological target: T4, epitope mapping peptide #6
T4 peptide: Biotin-AFNFDQETVINPETG
Description: as §1, §2, §3

[5] = biological target: T5, epitope mapping peptide #11
T5 construct: final K stands where DPP3 has R
T5 peptide: ETGEQIQSWYK(Biotin)
Description: as §1, §2, §3

[6] = biological target: T6, epitope mapping peptide #13
T6 construct: final K stands where DPP3 has R
T6 peptide: NPETGEQIQSWYK(Biotin)
Description: as §1, §2, §3

[7] = biological target: T7, epitope mapping peptide #5
T7 peptide: Biotin-AFNFDQETVINPETGE
Description: as §1, §2, §3

[8] = biological target: T8, epitope mapping peptide #15
T8 construct: final K stands where DPP3 has R
T8 peptide: VINPETGEQIQSWYK(Biotin)
Description: as §1, §2, §3

[9] = biological target: T9, epitope mapping peptide #16
T9 construct: final K stands where DPP3 has R
T9 peptide: TVINPETGEQIQSWYK(Biotin)
Description: as §1, §2, §3

[10] = biological target: T10, epitope mapping peptide #12
T10 construct: final K stands where DPP3 has R
T10 peptide: PETGEQIQSWYK(Biotin)
Description: as §1, §2, §3

[11] = biological target: T11, epitope mapping peptide #8
T11 peptide: Biotin-AFNFDQETVINPE
Description: as §1, §2, §3

[12] = biological target: T12, epitope mapping peptide #3
T12 peptide: Biotin-AFNFDQETVINPETGEQI
Description: as §1, §2, §3

[13] = biological target: T13, epitope mapping peptide #14
T13 construct: final K stands where DPP3 has R
T13 peptide: INPETGEQIQSWYK(Biotin)
Description: as §1, §2, §3

[14] = biological target: T14, epitope mapping peptide #9
T14 peptide: Biotin-AFNFDQETVINP
Description: as §1, §2, §3

[15] = biological target: T15, epitope mapping peptide #17
T15 construct: final K stands where DPP3 has R
T15 peptide: ETVINPETGEQIQSWYK(Biotin)
Description: as §1, §2, §3

[16] = biological target: T16, epitope mapping peptide #10
T16 peptide: Biotin-AFNFDQETVIN
Description: as §1, §2, §3

binding result [1]: binds
binding result [2]: binds
binding result [3]: binds
binding result [4]: binds
binding result [5]: no binding
binding result [6]: no binding
binding result [7]: binds
binding result [8]: binds
binding result [9]: binds
binding result [10]: no binding
binding result [11]: no binding
binding result [12]: binds
binding result [13]: binds
binding result [14]: no binding
binding result [15]: binds
binding result [16]: no binding
B1: murine monoclonal anti-DPP3 antibody AK1967 (clone 1967) (antibody, V domains shown)
VH: QVTLKESGPGILQPSQTLSLTCSFSGFSLSTSGMSVGWIRQPSGKGLEWLAHIWWNDNKSYNPALKSRLTISRDTSNNQVFLKIASVVTADTGTYFCARNYSYDYWGQGTTLTVSS
VL: DVVVTQTPLSLSVSLGDPASISCRSSRSLVHSIGSTYLHWYLQKPGQSPKLLIYKVSNRFSGVPDRFSGSGSGTDFTLKISRVEAEDLGVYFCSQSTHVPWTFGGGTKLEIK
notes: Acridinium-labelled in the plate assays
